In paper PMC12435574:

What was measured:
[1] = confocal immunofluorescence (LSCM), HCT116; settings: glycan lost; control: wild type
[2] = immunofluorescence co-localisation with calnexin and GM130; settings: glycan lost; control: cells without S76A mutation
[3] = confocal co-localisation with phalloidin, calnexin, GM130; settings: glycan lost; control: untreated

Row | Protein | other: collagen I secretion by cells [1] | other: response of collagen I secretion/procollagen transport to kaempferol or OGT knockdown [2] | localisation_or_trafficking [3]
1 | Hsp47: S76A (protein) parent chain: MRSLLLLSAFCLLEAALAAEVKKPAAAAAPGTAEKLSPKAATLAERSAGLAFSLYQAMAKDQAVENILVSPVVVASSLGLVSLGGKATTASQAKAVLSAEQLRDEEVHAGLGELLRSLSNSTARNVTWKLGSRLYGPSSVSFADDFVRSSKQHYNCEHSKINFRDKRSALQSINEWAAQTTDGKLPEVTKDVERTDGALLVNAMFFKPHWDEKFHHKMVDNRGFMVTRSYTVGVMMMHRTGLYNYYDDEKEKLQIVEMPLAHKLSSLIILMPHHVEPLERLEKLLTKEQLKIWMGKMQKKAVAISLPKGVVEVTHDLQKHLAGLGLTEAIDKNKADLSRMSGKKDLYLASVFHATAFELDTDGNPFDQDIYGREELRSPKLFYADHPFIFLVRDTQSGSLLFIGRLVRPKGDKMRDEL | decreases | abolishes | 
2 | Hsp47: OSMI-1 (protein) parent chain: MRSLLLLSAFCLLEAALAAEVKKPAAAAAPGTAEKLSPKAATLAERSAGLAFSLYQAMAKDQAVENILVSPVVVASSLGLVSLGGKATTASQAKAVLSAEQLRDEEVHAGLGELLRSLSNSTARNVTWKLGSRLYGPSSVSFADDFVRSSKQHYNCEHSKINFRDKRSALQSINEWAAQTTDGKLPEVTKDVERTDGALLVNAMFFKPHWDEKFHHKMVDNRGFMVTRSYTVGVMMMHRTGLYNYYDDEKEKLQIVEMPLAHKLSSLIILMPHHVEPLERLEKLLTKEQLKIWMGKMQKKAVAISLPKGVVEVTHDLQKHLAGLGLTEAIDKNKADLSRMSGKKDLYLASVFHATAFELDTDGNPFDQDIYGREELRSPKLFYADHPFIFLVRDTQSGSLLFIGRLVRPKGDKMRDEL |  |  | changes
